The values that follow come from publication PMC4475061 (2015).

The Kd is a measure of binding affinity in units of concentration. Read a high Kd as weaker binding.

Assay [1] has as its target IST1 MIMs peptide (residues 316–366), fluorescently labeled (human, Oregon Green 488 maleimide on the non-native N-terminal cysteine). Kind of assay: FP.
Assay [2] has as its target IST1 MIM2 peptide (residues 316–343). In words: FP.

B1: ULK3(MIT)2 V338D (domain or fragment)
chain: GPHMSGESLGRATALVVQAVKKDQEGDSAAALSLYCKALDFFVPALHYEVDAQRKEAIKAKVGQYDSRAEELKAIVSSSNQALLRQGTSARDLLREMARDKPRLLAALEVASAAMAKEEAAGGEQDALDLYQHSLGELLLLLAAEPPGRRRELLHTEVQNLMARAEYLKEQVKMRES
In assay [1], B1 displayed a dissociation constant (Kd) of 0.32 µM. In other words, the sub-micromolar range.

B2: ULK3(MIT)2 (residues 277–449) (domain or fragment)
chain: GPHMSGESLGRATALVVQAVKKDQEGDSAAALSLYCKALDFFVPALHYEVDAQRKEAIKAKVGQYVSRAEELKAIVSSSNQALLRQGTSARDLLREMARDKPRLLAALEVASAAMAKEEAAGGEQDALDLYQHSLGELLLLLAAEPPGRRRELLHTEVQNLMARAEYLKEQVKMRES
On to B2, for which, in assay [2], the Kd was more than 300 µM.

B3: ULK3(MIT)2 M434D (domain or fragment)
chain: GPHMSGESLGRATALVVQAVKKDQEGDSAAALSLYCKALDFFVPALHYEVDAQRKEAIKAKVGQYVSRAEELKAIVSSSNQALLRQGTSARDLLREMARDKPRLLAALEVASAAMAKEEAAGGEQDALDLYQHSLGELLLLLAAEPPGRRRELLHTEVQNLDARAEYLKEQVKMRES
Regarding B3, the Kd in assay [1] worked out at 24.3 µM.
